Where no end group is shown, it is not given here. [ ]: non-standard residue; d: D form. pY = N[C@@H](Cc1ccc(OP(=O)(O)O)cc1)C(=O)O; pT = C[C@@H](OP(=O)(O)O)[C@H](N)C(=O)O; pS = N[C@@H](COP(=O)(O)O)C(=O)O
B1: ppIRS1, IRS1 peptide dually phosphorylated (pY632 + pS636) (peptide)
peptide: GRKGSGD[pY]MPM[pS]PKS
B2: CF-ppIRS1, carboxyfluorescein-labelled pY632 + pS636 IRS1 peptide (peptide)
chain: GRKGSGDYMPMSPKS
modifications: phosphotyrosine at Y632; phosphoserine at S636; C-terminal lysine-ε-carboxyfluorescein label
B3: p0IRS1, IRS1 peptide with phosphotyrosine only (pY632) (peptide)
peptide: GRKGSGD[pY]MPMSPKS
B4: ppCD28, CD28 peptide dually phosphorylated (pY191 + pT195) (peptide)
peptide: RSRLLHSD[pY]MNM[pT]PRR
B5: p0CD28, CD28 peptide with phosphotyrosine only (pY191) (peptide)
peptide: RSRLLHSD[pY]MNMTPRR

What follows are binders tested against T1, PIK3R1 (p85) C-terminal SH2 domain (614-724) (human, UniProt P27986 614-724) (assay: FP).
T1 sequence (P27986 614-724): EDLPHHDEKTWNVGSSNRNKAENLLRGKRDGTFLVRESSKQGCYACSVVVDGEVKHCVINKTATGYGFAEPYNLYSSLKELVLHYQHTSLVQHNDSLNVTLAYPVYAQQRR

Point of comparison: B1, Kd 5.1 nM. Against it:
- B2 — 2.1-fold higher, 10.6 nM
- B3 — 1.6-fold higher, 8.1 nM

These binders were tested against T2, PIK3R1 (p85) N-terminal SH2 domain (321-433) (human, UniProt P27986 321-433) (assay: FP).
T2 sequence (P27986 321-433): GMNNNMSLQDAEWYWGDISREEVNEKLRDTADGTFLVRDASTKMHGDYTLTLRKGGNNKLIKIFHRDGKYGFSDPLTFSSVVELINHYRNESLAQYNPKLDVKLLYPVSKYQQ

Point of comparison: B3, Kd 184 nM. Against it:
- B1 — 1.7-fold higher, 306 nM
- B2 — 2.2-fold higher, 412 nM

Biological target: T2, PIK3R1 (p85) N-terminal SH2 domain …
Assay: FP
Remark: another data set of the same source

Point of comparison: B2, Kd 383 nM. Against it:
- B4 — within 1.5-fold, 285 nM
- B5 — 3.7-fold lower, 104 nM

Biological target: T1, PIK3R1 (p85) C-terminal SH2 domain …
Assay: FP
Remark: another data set of the same source

Point of comparison: B5, Kd 11 nM. Against it:
- B2 — 1.9-fold lower, 5.7 nM
- B4 — 2.1-fold higher, 22.9 nM

Source: paper PMC9481563 (2022)
